Source: patent publication US7423021B2, “Peptidic thrombin inhibitors” (NSCI Novel Science International GmbH, priority 2003, dated 2008)
pKi: −log10 of the molar value. Square brackets hold non-standard residues; d marks the D form. Phe(4-NO2) = N[C@@H](Cc1ccc([N+](=O)[O-])cc1)C(=O)O; hArg = N=C(N)NCCCC[C@H](N)C(=O)O; dCha = N[C@H](CC1CCCCC1)C(=O)O; Aze = O=C(O)[C@@H]1CCN1

Columns and labels:
thrombin [1] = details: literature values; cited from earlier work
thrombin [2] = target: thrombin (Homo sapiens, UniProt P00734); experiment: in-vitro inhibition of the amidase activity of thrombin (fluorogenic substrate Tos-Gly-Pro-Arg-AMC); type: biochemical; set-up: 10 μl of human thrombin solution; details: peptide concentration of 250 nM
Procedure: The values of the inhibiting constants Ki were obtained from assays in which thrombin hydrolyzes the fluorogenic substrate Tos-Gly-Pro-Arg-(7-amino-4-methylcumarin). The assays were carried out in […] of assay buffer (0.05 M tris, 0.1 M NaCl, 0.1% PEG 8000, pH 7.6) with 10 μl of human thrombin solution (10^−5 U/μl in the assay buffer) and 140 μl of a solution of the fluorogenic substrate in an assay buffer at a concentration of 30 μM. Solutions of the test compound (10 μl) were added at various concentrations. The rates of the hydrolysis of the substrate were measured by monitoring the reactions at […] of the release of 7-amino-4-methylcumarin using AMC. The reaction reached an equilibrium state within three minutes, after thrombin, the substrate, and an inhibitor were mixed. The kinetic data of the competing inhibition (Km, Vmax, and Ki) were analyzed by means of the representation according to Hanes (A/V against A at various values of A, where A is the substrate concentration and V the reaction rate).

Row | Substance | pKi (thrombin [1]) | inhibition of the amidase activity of the thrombin (thrombin [2]) [%]
1 | H-D-Phe-Pro-Arg-H | 7.15 | –
2 | N-acetyl-L-Trp-D-Cha-L-Aze-D-Tyr-L-Har amide (Ac-W[dCha][Aze][dY][hArg]-NH2; SMILES CC(=O)N[C@@H](Cc1c[nH]c2ccccc12)C(=O)N[C@H](CC1CCCCC1)C(=O)N1CC[C@H]1C(=O)N[C@H](Cc1ccc(O)cc1)C(=O)N[C@@H](CCCCNC(=N)N)C(N)=O) [Example 18] | – | 76
3 | N-acetyl-L-Pnp-D-Cha-L-Aze-D-Tyr-L-Har amide (Ac-[Phe(4-NO2)][dCha][Aze][dY][hArg]-NH2; SMILES CC(=O)N[C@@H](Cc1ccc([N+](=O)[O-])cc1)C(=O)N[C@H](CC1CCCCC1)C(=O)N1CC[C@H]1C(=O)N[C@H](Cc1ccc(O)cc1)C(=O)N[C@@H](CCCCNC(=N)N)C(N)=O) [Example 29] | – | 72
